Source: the supplement of paper PMC9170038

What follows are sequences tested on K4 kissing-loop RNA reporter (assay: apparent KD of K4 kissing-loop reporter; higher = weaker reporter binding). Settings: Eterna round: R107; input ligand: none.
Experimental: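 RNA-MaP round R107: designed RNA switches with theophylline, tryptophan, arginine or FMN aptamers are transcribed on-chip within common flanks. They are titrated with a labelled K4 kissing-loop RNA reporter in RNA-MaP buffer (100 mM Tris pH 7.5, 80 mM KCl, 4 mM MgCl2), without ligand or with the indicated ligand. Median apparent KD per design.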
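Also: bound reporter read as fluorescence of individual clusters on recovered sequencing chips by microscopy, with normalized cluster intensities fitted with a binding model.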

“UGUGAACAAAAGUAGAGUGGACCACUAUAGCGAGGACCGGUACGGCCGCCACUCGUGCAUGAAUUCAGUGAUGUUGAAAAGAGCU [whbob_EX_Tryp_A_t12]” and “AGCUCAGCGUGACUCGAUAAGAGUCACAAACGAGGACCGGUACGGCCGCCACUCGAAAUAAAGGGAGUGAUGUUCUCGCUGAGCA [#SwitchBubble 4 #StaticStem #K4Late]” are within 1.5-fold of each other in “apparent KD of K4 kissing-loop reporter” value: 0.33 µM for the first, 0.37 µM for the second.

First: GCCGUAGAUGGAAGGAGCGUGGUAGACUGUUGAAGUGAUGUUUCAACUCAUUAAGCCCAACCACAGGUAGGUCGCCAUCUACGGC
Second: UGACAUUGCUCAGAUACCAGACAUGAGCAUCAGCCAUGUGCCAAAUAAACGUACAUAAAUGUCCCUUGGCAGCUGAGCAAUGUCU [TheoBX 11]
The “apparent KD of K4 kissing-loop reporter” value of the first is 2.8-fold higher: 0.107 µM for the first, 0.0383 µM for the second.

Compared with “UGUGCUGUGUAGUGUAAUGUUAUGCGGGAUACCAGAGUCUUUUUAUUCCCUUGGCAGCUUGAGUGAUGUUUGAUGCUGUUCUUGU [uujmullin]”, “AAAAUAAGCCAGUGAUGUUGGUGUCCAGAUACCAGCGACGAAAGUCGCCCUUGGCAGCUGUGGACGUACAAAAUAAGUACGUCCU” is 3.3-fold higher in “apparent KD of K4 kissing-loop reporter” value: 0.35 µM for the first, 1.14 µM for the second.

Going from “UGGGAUGUUAAAGGAUAUAGCAGGUGAUAUAAGAAAGUGAGUGAUGUUUAUGUAGAUGAUGAUAUGUUAGAAGGUUAACAAAACG [abcdefghi]” to “AAGGCAUUCAGAAGGAGCGUGGUUUAAUCAUUAAUAUUUUUUACGAGUGAUGUUCGUAAUUCACAGGUAGGUCGCUGAAUAAUAA [JR_ExcArginiB_Sub008]”, the “apparent KD of K4 kissing-loop reporter” value falls from 0.34 µM to 0.128 µM (2.7-fold).

For “AAUGUAAUGACGGCCGCCACUGAUUACCAGUGAUGUUGGUAAAGAACUUUAUAAGUCCUGGAAACCAGGACCGGGUCAACGGUCC [Tryp B Ex t1]”, the “apparent KD of K4 kissing-loop reporter” value was 0.318 µM.

Same assay, conditions: Eterna round: R107; input ligand: theophylline 20 uM

First: GUGAGUGACGGAGGAUAUGCGAUAGAUGUAGGAAAAUUAGUGAUGUUAGUUAUGGUAGAGAUAGAAGUAGAAGGUUGGUGUGUGU [RHig 3/7]
Second: GUGCAGUGAUGUUGCACGAGGAAAGACGAUACCAGCCGUAAAUAAGGCCCUUGGCAGCGUGGGCUAGCAUAAAGCAUGCUAGUCU [Edbemavela]
The “apparent KD of K4 kissing-loop reporter” value of the first is 5.3-fold higher: 0.585 µM for the first, 0.111 µM for the second.

“AAAAUAACCCAGUGAUGUUGGUAUCCAGAUACCAGCGACGAAAGUCGCCCUUGGCAGCUGUGGACGUACAAAAUAAGUACGUCCU” and “CCUGCUACGUAAGGAUAUGGAAAUGAGUGAUGUUUAGAGAUAUGGUCCAGGUUUAGUCAUCAUAGACCAGAAGGUACAUCGGGCG [theeternabot_exclusion_KL_FMN_B_8]” are within 1.5-fold of each other in “apparent KD of K4 kissing-loop reporter” value: 0.545 µM for the first, 0.364 µM for the second.

First: GUAUCGCUAGGAGGAUAUUUCAUAUAACAUAUAAAUGGAUAUGCGGAGUGAUGUUCCGAUUUACGGAAAGAAGGCCUAGUGAUAC [FMN B 19]
Second: CAUAGACAAGUGAUGUUUGUCAUAACCGAAGGAGCGUCGUUGAAGACAGGUAGGUCGCGGAUUAAUUAAGAUUAUAUUCUUUUUA [JR_SSArginiA_Sub019]
The “apparent KD of K4 kissing-loop reporter” value of the first is 3-fold lower: 0.207 µM for the first, 0.624 µM for the second.

First: CGCAAGCAGCCAGUGAUGUUGGCCGCCUUGCGAGGACCGGUACGGCCGCCACUCGAAGGCGGCUACUGAUAAUCCGUCUAACGGA [KL-XTryp-A15]
Second: UGAUUGCCAGUGAUGUUGGCAUAAACUGAAGGAGCGCGUGAAAACGCAGGUAGGUCGCAGUACCAUGCCAAUUGAUCGAAAGAUC [KL-XArg-A2]
The “apparent KD of K4 kissing-loop reporter” value of the first is 1.8-fold lower: 0.0924 µM for the first, 0.169 µM for the second.

Compared with “UGCCGCAAGGCGAGCGCUCCCACUCCGGAAGGAGCGCCCGCAAGGGCAGGUAGGUCGCCGGAGUGAUGUUCCGGUGGAGGGCUCG [#2 Exclusion - Arginine A Attempt #25 (Inspired by Omei)]”, “UGUGAACAAAAGUAGAGUGGACCACUAUAGCGAGGACCGGUACGGCCGCCACUCGUGCAUGAAUUCAGUGAUGUUGAAAAGAGCU [whbob_EX_Tryp_A_t12]” is 2.2-fold higher in “apparent KD of K4 kissing-loop reporter” value: 0.164 µM for the first, 0.364 µM for the second.

Going from “AGCUCAGCGUGACUCGAUAAGAGUCACAAACGAGGACCGGUACGGCCGCCACUCGAAAUAAAGGGAGUGAUGUUCUCGCUGAGCA [#SwitchBubble 4 #StaticStem #K4Late]” to “GCCGUAGAUGGAAGGAGCGUGGUAGACUGUUGAAGUGAUGUUUCAACUCAUUAAGCCCAACCACAGGUAGGUCGCCAUCUACGGC”, the “apparent KD of K4 kissing-loop reporter” value falls from 0.274 µM to 0.112 µM (2.4-fold).

Compared with “UGACAUUGCUCAGAUACCAGACAUGAGCAUCAGCCAUGUGCCAAAUAAACGUACAUAAAUGUCCCUUGGCAGCUGAGCAAUGUCU [TheoBX 11]”, “UGUGCUGUGUAGUGUAAUGUUAUGCGGGAUACCAGAGUCUUUUUAUUCCCUUGGCAGCUUGAGUGAUGUUUGAUGCUGUUCUUGU [uujmullin]” is 3.1-fold higher in “apparent KD of K4 kissing-loop reporter” value: 0.118 µM for the first, 0.371 µM for the second.

First: AAAAUAAGCCAGUGAUGUUGGUGUCCAGAUACCAGCGACGAAAGUCGCCCUUGGCAGCUGUGGACGUACAAAAUAAGUACGUCCU
Second: UGGGAUGUUAAAGGAUAUAGCAGGUGAUAUAAGAAAGUGAGUGAUGUUUAUGUAGAUGAUGAUAUGUUAGAAGGUUAACAAAACG [abcdefghi]
The “apparent KD of K4 kissing-loop reporter” value of the first is 3-fold higher: 0.957 µM for the first, 0.318 µM for the second.

Going from “AAGGCAUUCAGAAGGAGCGUGGUUUAAUCAUUAAUAUUUUUUACGAGUGAUGUUCGUAAUUCACAGGUAGGUCGCUGAAUAAUAA [JR_ExcArginiB_Sub008]” to “AAUGUAAUGACGGCCGCCACUGAUUACCAGUGAUGUUGGUAAAGAACUUUAUAAGUCCUGGAAACCAGGACCGGGUCAACGGUCC [Tryp B Ex t1]”, the “apparent KD of K4 kissing-loop reporter” value rises from 0.134 µM to 0.309 µM (2.3-fold).

Same assay, conditions: Eterna round: R107; input ligand: tryptophan 2.4 mM

Compared with “GUGAGUGACGGAGGAUAUGCGAUAGAUGUAGGAAAAUUAGUGAUGUUAGUUAUGGUAGAGAUAGAAGUAGAAGGUUGGUGUGUGU [RHig 3/7]”, “GUGCAGUGAUGUUGCACGAGGAAAGACGAUACCAGCCGUAAAUAAGGCCCUUGGCAGCGUGGGCUAGCAUAAAGCAUGCUAGUCU [Edbemavela]” is 4-fold lower in “apparent KD of K4 kissing-loop reporter” value: 0.395 µM for the first, 0.0996 µM for the second.

First: AAAAUAACCCAGUGAUGUUGGUAUCCAGAUACCAGCGACGAAAGUCGCCCUUGGCAGCUGUGGACGUACAAAAUAAGUACGUCCU
Second: CCUGCUACGUAAGGAUAUGGAAAUGAGUGAUGUUUAGAGAUAUGGUCCAGGUUUAGUCAUCAUAGACCAGAAGGUACAUCGGGCG [theeternabot_exclusion_KL_FMN_B_8]
The “apparent KD of K4 kissing-loop reporter” value of the first is 1.5-fold higher: 0.612 µM for the first, 0.4 µM for the second.

Compared with “GUAUCGCUAGGAGGAUAUUUCAUAUAACAUAUAAAUGGAUAUGCGGAGUGAUGUUCCGAUUUACGGAAAGAAGGCCUAGUGAUAC [FMN B 19]”, “CAUAGACAAGUGAUGUUUGUCAUAACCGAAGGAGCGUCGUUGAAGACAGGUAGGUCGCGGAUUAAUUAAGAUUAUAUUCUUUUUA [JR_SSArginiA_Sub019]” is 2.9-fold higher in “apparent KD of K4 kissing-loop reporter” value: 0.172 µM for the first, 0.505 µM for the second.

“CGCAAGCAGCCAGUGAUGUUGGCCGCCUUGCGAGGACCGGUACGGCCGCCACUCGAAGGCGGCUACUGAUAAUCCGUCUAACGGA [KL-XTryp-A15]” and “UGAUUGCCAGUGAUGUUGGCAUAAACUGAAGGAGCGCGUGAAAACGCAGGUAGGUCGCAGUACCAUGCCAAUUGAUCGAAAGAUC [KL-XArg-A2]” are within 1.5-fold of each other in “apparent KD of K4 kissing-loop reporter” value: 0.111 µM for the first, 0.141 µM for the second.

“UGCCGCAAGGCGAGCGCUCCCACUCCGGAAGGAGCGCCCGCAAGGGCAGGUAGGUCGCCGGAGUGAUGUUCCGGUGGAGGGCUCG [#2 Exclusion - Arginine A Attempt #25 (Inspired by Omei)]” and “UGUGAACAAAAGUAGAGUGGACCACUAUAGCGAGGACCGGUACGGCCGCCACUCGUGCAUGAAUUCAGUGAUGUUGAAAAGAGCU [whbob_EX_Tryp_A_t12]” are within 1.5-fold of each other in “apparent KD of K4 kissing-loop reporter” value: 0.157 µM for the first, 0.185 µM for the second.

Going from “AGCUCAGCGUGACUCGAUAAGAGUCACAAACGAGGACCGGUACGGCCGCCACUCGAAAUAAAGGGAGUGAUGUUCUCGCUGAGCA [#SwitchBubble 4 #StaticStem #K4Late]” to “GCCGUAGAUGGAAGGAGCGUGGUAGACUGUUGAAGUGAUGUUUCAACUCAUUAAGCCCAACCACAGGUAGGUCGCCAUCUACGGC”, the “apparent KD of K4 kissing-loop reporter” value falls from 0.625 µM to 0.12 µM (5.2-fold).

Going from “UGACAUUGCUCAGAUACCAGACAUGAGCAUCAGCCAUGUGCCAAAUAAACGUACAUAAAUGUCCCUUGGCAGCUGAGCAAUGUCU [TheoBX 11]” to “UGUGCUGUGUAGUGUAAUGUUAUGCGGGAUACCAGAGUCUUUUUAUUCCCUUGGCAGCUUGAGUGAUGUUUGAUGCUGUUCUUGU [uujmullin]”, the “apparent KD of K4 kissing-loop reporter” value rises from 0.0649 µM to 0.287 µM (4.4-fold).

Compared with “AAAAUAAGCCAGUGAUGUUGGUGUCCAGAUACCAGCGACGAAAGUCGCCCUUGGCAGCUGUGGACGUACAAAAUAAGUACGUCCU”, “UGGGAUGUUAAAGGAUAUAGCAGGUGAUAUAAGAAAGUGAGUGAUGUUUAUGUAGAUGAUGAUAUGUUAGAAGGUUAACAAAACG [abcdefghi]” is 4-fold lower in “apparent KD of K4 kissing-loop reporter” value: 1.12 µM for the first, 0.282 µM for the second.

Compared with “AAGGCAUUCAGAAGGAGCGUGGUUUAAUCAUUAAUAUUUUUUACGAGUGAUGUUCGUAAUUCACAGGUAGGUCGCUGAAUAAUAA [JR_ExcArginiB_Sub008]”, “AAUGUAAUGACGGCCGCCACUGAUUACCAGUGAUGUUGGUAAAGAACUUUAUAAGUCCUGGAAACCAGGACCGGGUCAACGGUCC [Tryp B Ex t1]” is 2.3-fold higher in “apparent KD of K4 kissing-loop reporter” value: 0.114 µM for the first, 0.258 µM for the second.
